The values below come from publication PMC1474074.

Like-named read-outs stand apart in the source and are kept apart here.

Data set [1] deals with T1, streptavidin (UniProt P22629 25-183). Description: EMSA. (Mobility shift assays separate free from complexed probe on a gel.)
Data set [2] concerns the target T1, streptavidin. Briefly: EMSA. The source holds these as a separate data set.

T1 sequence (P22629 25-183): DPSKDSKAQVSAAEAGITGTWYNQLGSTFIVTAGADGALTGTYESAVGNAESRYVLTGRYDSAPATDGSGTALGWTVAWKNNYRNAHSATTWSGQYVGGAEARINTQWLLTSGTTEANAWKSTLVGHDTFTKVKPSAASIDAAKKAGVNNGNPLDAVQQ

B1: B-siRNA (anti-lamin A/C) (dsRNA)
RNA 1: GGAACUGGACUUCCAGAAGAACAUCUA
RNA 2: UAGAUGUUCUUCUGGAAGUCCAGUUCC
modifications: 5'-biotin on sense strand
As to B1, the binding result in data set [1] was “binds”.

B2: BSS-siRNA (anti-lamin A/C) (dsRNA)
RNA 1: GGAACUGGACUUCCAGAAGAACAUCUA
RNA 2: UAGAUGUUCUUCUGGAAGUCCAGUUCC
modifications: 5'-biotin via C6 S-S disulfide linker on sense strand
Regarding B2, the binding result in data set [2] is “binds”.
